This is an account of results in patent publication US12280118B2 (Kyowa Kirin Co., Ltd., priority 2017, dated 2025).

What all share (format): cell-based
One test concerns human NK cells. Nature of the test: NK cell proliferation activity. Conditions: for cell proliferation activity on NK cells: compared with IL-2 (P) and 8His-IL-2 as controls. The method, then:
A separation of NK cells from human PBMC was performed by a method below. Frozen human PBMC was thawed according to the method described in Example 13, and CD56^+ NK cells were separated using NK Cell Isolation Kit human (manufactured by Miltenyi Biotech). The separated cells were washed three times with a culture medium (1500 rpm, room temperature, 5 minutes) and then subjected to a proliferation assay below.
FIGS. 2A to 2H show results obtained using a proliferation medium, and FIGS. 2I to 2K show results obtained using the X-vivo 10 SFM.

Another test relates to human Tresp. Nature of the test: Inhibitory activity of IL-2-stimulated Tregs on Tresp proliferation. The following applies: Tregs cultured 7 days with IL-2 (final concentration 65 nM); compared with unstimulated Treg.
In a further test the test system is human Tregs. Nature of the test: Treg proliferation activity. Conditions: for Treg proliferation activity: with respect to IL-2 (P) or 8His-IL-2 (P) as control. Here is the method:
After human frozen peripheral blood mononuclear cells (PBMCs) (manufactured by AllCells) were melted in a warm bath at 37° C., the cells were suspended in 10 mL of a culture medium [X-vivo15 SFM (manufactured by Lonza) 1000 mL, heat-inactivated human AB serum (manufactured by SIGMA) 150 mL], and a T-75 flask for adhesion (manufactured by greiner bio-one) was seeded the cells, and allowed to stand for 24 hours to culture the cells (37° C., under conditions of 95 vol % air/5 vol % CO2). A total amount of cells was collected, and CD4^+ T cells were enriched using EasySep Human CD4^+ Tcells Enrichment kit (manufactured by […] Technologies).
After staining (on ice, 30 minutes) with Anti-human CD4-Alexa 488 (manufactured by Biolegend), anti-human CD25-PE (manufactured by BD Pharmingen), and anti-human CD127-BV421 (manufactured by Biolegend), a CD4^+ CD25^+ CD127^low fraction (Treg) was separated using a cell sorter SH800 (manufactured by SONY Biotechnology).
The separated Treg and CD3/CD28 Dynabeads (manufactured by Thermo Fischer […]) washed three times with the culture medium were mixed with each other, and suspended in a culture medium at 3.4×10^4 cells/mL, respectively, and a 96-well U bottom plate (manufactured by Corning) was seeded with at 150 μL/well.
After culturing for 5 to 7 days, 50 μL of a total volume of each well was transferred to a 96-well white plate. A Celltiter-Glo solution was added at 50 μL/well, and the mixture was allowed to stand at room temperature for 10 minutes, and then a luminescence value was measured using a luminometer (manufactured by TURNER BIOSYSTEMS).

Numbering of substitutions follows the chain as printed. In names and notes the source's numbering stands. A value given as a limit tells only on which side of the number the result lay.

Description for human Tresp: All cells were separated from each other by the same lot of frozen human PBMC.
Seven days before the assay, Tregs were separated from the frozen human PBMCs as described in Example 13.
The cell preparation on the day of test was performed as follows. Tregs were separated from the frozen human PBMC by the method described in Example 13 and used as unstimulated Tregs. After CD3^+CD25^− T cells were separated from the frozen human PBMC, by using EasySep Human T Cell Enrichment Kit (manufactured by [sequence] Technologies) and EasySep Human Pan-CD25 Positive Selection and Depletion Kit (manufactured by [sequence] Technologies), the cells were labeled by reacting Celltrace violet (manufactured by Thermo Fischer [sequence]) diluted to 40 μmol/L with a 10% FBS-containing RPMI1640 medium, at room temperature for 5 minutes.
The obtained cells were used as responder T cells (Tresp). HLA-DR+ cells were separated from frozen human PBMCs using Anti-HLA-DR MicroBeads, human (manufactured by Miltenyi Biotec). The obtained cells were used as Antigen presenting cell (APC).
After the obtained cells were suspended in X-vivo 15 SFM to which an anti-CD3 antibody OKT3 (manufactured by Biolegend) was added to obtain a final concentration of 0.5 μg/mL, a 96-well V-bottom plate (manufactured by Sumitomo Bakelite) was seeded with Tresp at 2×10^4 cells/well (50 μL), APC at 1×10^5 cells/well (50 μL), and Tregs at 1.6×10^2 to 5×10^3 cells/well (50 μL) (Tresp:Treg=4:1 to 128:1), and the cells were cultured at 37° C. under 5% CO2 for 4 days.
Thereafter, the cells were stained with anti-human CD4-APC (manufactured by BD Pharmingen) and anti-human CD8-PE (manufactured by BD Pharmingen) (at room temperature for 15 minutes), and then various fluorescent intensities were measured by flow cytometer FACS Canto II (manufactured by BD Biosciences).
The obtained data was exported as FCS file, and then analyzed using data analysis software FLowJo (TreeStar, version 7.6.5) for a division index value, which is an average number of cell divisions in CD4^+ Tresp or CD8^+ Tresp.

As for “N88C-2: glycosylated IL-2 variant; N88 to C-lactose”, the “cell proliferation activity on NK cells” value in the test with human NK cells was “greatly reduced”. Further, in the test on human Tresp, the “proliferation of Tresp in the presence of IL-2-stimulated Tregs” value (shortened to “proliferation of Tresp”) is “inhibited”. In addition, in the test with human Tregs, the Treg proliferation activity result is “maintained”.

Regarding “E15C-11: glycosylated IL-2 variant; E15 to C-disialo; C125S”, in the test with human NK cells, the “cell proliferation activity on NK cells” value was “greatly reduced”. Besides, the Treg proliferation activity entry with human Tregs is “maintained”.

“L19C-9: glycosylated IL-2 variant; L19 to C-asialo”: in the test with human NK cells, the “cell proliferation activity on NK cells” value was “greatly reduced”. The “proliferation of Tresp” value in the test on human Tresp is reported as “inhibited”. Besides, the Treg proliferation activity entry with human Tregs is recorded as “maintained”.

For “H16C-2: glycosylated IL-2 variant; H16 to C-lactose”, the “cell proliferation activity on NK cells” value in the test with human NK cells is on record as “greatly reduced”. Also, in the test with human Tresp, the “proliferation of Tresp” value is “inhibited”. For the same molecule, in the test on human Tregs, the Treg proliferation activity result is recorded as “maintained”.

B1: F78C-V40(IAc)/L12C-11: Cys-PEGylated and glycosylated IL-2 variant; F78 to C-V40(IAc); L12 to C-disialo; C125S (protein, UniProt P60568 21-153, looked up, variant L12C F78C C125S)
Interleukin-2: APTSSSTKKTQCQLEHLLLDLQMILNGINNYKNPKLTRMLTFKFYMPKKATELKHLQCLEEELKPLEEVLNLAQSKNCHLRPRDLISNINVIVLELKGSETTFMCEYADETATIVEFLNRWITFSQSIISTLT
modifications: PEG on C78; disialo glycan on C12
notes: Cys-PEGylated and glycosylated IL-2 variant; F78 to C-V40(IAc); L12 to C-disialo; C125S
As for B1, the “cell proliferation activity on NK cells” value with human NK cells is recorded as “greatly reduced”. For the same molecule, in the test on human Tregs (Treg, IL-2 concentration of 65 nmol/L), the “IL-2-dependent cell proliferation rate” value is given as at least 80%. Moreover, the Treg proliferation activity entry in the test with human Tregs is “lowered”.

B2: T3C-V80(Mal)/E15C-11: Cys-PEGylated and glycosylated IL-2 variant; T3 to C-V80(Mal); E15 to C-disialo; C125S (protein, UniProt P60568 21-153, looked up, variant T3C E15C C125S)
Interleukin-2: B1 Interleukin-2 with T3C, C12L, E15C, C78F
modifications: maleimide PEG on C3; disialo glycan on C15
notes: Cys-PEGylated and glycosylated IL-2 variant; T3 to C-V80(Mal); E15 to C-disialo; C125S
Regarding B2, in the test on human NK cells, the “cell proliferation activity on NK cells” value is recorded as “greatly reduced”. Besides, the Treg proliferation activity result with human Tregs was “lowered”.

B3: T3C-Li20(IAc)/L12C-11/V91C-11: Cys-PEGylated and glycosylated IL-2 variant; T3 to C-Li20(IAc); L12, V91 to C-disialo; C125S (protein, UniProt P60568 21-153, looked up, variant T3C L12C V91C C125S)
Interleukin-2: B1 Interleukin-2 with T3C, C78F, V91C
modifications: PEG on C3; disialo glycans
notes: Cys-PEGylated and glycosylated IL-2 variant; T3 to C-Li20(IAc); L12, V91 to C-disialo; C125S
Take B3: the “cell proliferation activity on NK cells” value with human NK cells is “greatly reduced”. In the test with human Tregs, the Treg proliferation activity entry is given as “lowered”.

B4: V91C-11/V115C-11: glycosylated IL-2 variant; V91, V115 to C-disialo; C125S (protein, UniProt P60568 21-153, looked up, variant V91C V115C C125S)
Interleukin-2: B1 Interleukin-2 with C12L, C78F, V91C, V115C
modifications: disialo glycans on cysteines
notes: glycosylated IL-2 variant; V91, V115 to C-disialo; C125S
Take B4: the “cell proliferation activity on NK cells” value in the test with human NK cells was “greatly reduced”. Also, the Treg proliferation activity result in the test with human Tregs is “maintained”.

B5: T3C-Y50(IAc)/E15C-11: Cys-PEGylated and glycosylated IL-2 variant; T3 to C-Y50(IAc); E15 to C-disialo; C125S (protein, UniProt P60568 21-153, looked up, variant T3C E15C C125S)
Interleukin-2: B1 Interleukin-2 with T3C, C12L, E15C, C78F
modifications: PEG on C3; disialo glycan on C15
notes: Cys-PEGylated and glycosylated IL-2 variant; T3 to C-Y50(IAc); E15 to C-disialo; C125S
Regarding B5, in the test with human NK cells, the “cell proliferation activity on NK cells” value is “greatly reduced”. In addition, in the test with human Tregs, the Treg proliferation activity result is “maintained”.

B6: A1C-11/T3C-11/S5C-11/L12C-11/V91C-11: glycosylated IL-2 variant; A1, T3, S5, L12, V91 to C-disialo; C125S (protein, UniProt P60568 21-153, looked up, variant A1C T3C S5C L12C V91C C125S)
Interleukin-2: B1 Interleukin-2 with A1C, T3C, S5C, C78F, V91C
modifications: disialo glycans on cysteines
notes: glycosylated IL-2 variant; A1, T3, S5, L12, V91 to C-disialo; C125S
B6: the “IL-2-dependent cell proliferation rate” value in the test with human NK cells (NK cells, X-vivo 10 SFM, IL-2 concentration of 65 nmol/L) is listed as at most 20%. The “cell proliferation activity on NK cells” value with human NK cells was “greatly reduced”. For the same molecule, the Treg proliferation activity entry in the test with human Tregs is “lowered”.
